Values quoted from earlier work in article PMC3012091, “The Concentration of Soluble Extracellular Amyloid-β Protein in Acute Brain Slices from CRND8 Mice” (PLoS ONE, 2010).
Read-outs that look alike come from different tables or passages of the source.

Columns and labels:
[1] = APP overexpressing mice
Description: Constant turn-over of Aβ was included in some model calculations by adjusting the concentrations of Aβ at every location within the tissue after each iterative step of the model. […] E ... || The half-life of Aβ in the model is a more likely source of inaccuracy as the half-lives of Aβ species are less clear from the literature. There are few published half-life measurements from APP overexpressing mice.

[2] = tested on: long-term potentiation (LTP); settings: 50–200 pM Aβ applied to acute hippocampal slices
Description: At these concentrations Aβ affects long-term potentiation (LTP) when applied to acute hippocampal slices.

[3] = human CNS
Description: Constant turn-over of Aβ was included in some model calculations by adjusting the concentrations of Aβ at every location within the tissue after each iterative step of the model.

[4] = postmortem extraction of Aβ from brain tissue

Row | Substance | half-life [1, 4] [h] | half-life ([1]; in vivo dialysis) [h] | effect on LTP [2] | half-life of Aβ [3] [h]
1 | Aβ1–42: endogenous soluble extracellular amyloid-β protein 1–42 of CRND8 mice, measured by human beta amyloid(1–42) ELISA | ≤ 1.7 |  |  | 
2 | Aβ1–40: amyloid-β protein 1–40, literature half-life only | ≤ 0.7 |  |  | 
3 | Amyloid-β protein [Aβ] |  | 4 | both inhibition and enhancement | 8 to 9
